PMC3718736

Biological target: VHH2-Fc antibody (VHH C2 fused to the Fc of human IgG1) (llama (Lama glama))
Test: SPR; Biacore 3000; […] (10 mM acetate pH 3.5); […]

Sequence of VHH2-Fc antibody (VHH C2 fused to the Fc of human IgG1) (llama (Lama glama)) (heavy, as listed by the source): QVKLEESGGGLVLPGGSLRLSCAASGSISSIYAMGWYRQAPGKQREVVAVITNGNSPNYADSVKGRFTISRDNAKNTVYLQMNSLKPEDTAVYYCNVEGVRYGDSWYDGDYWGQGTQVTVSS

α-cobratoxin (from UniProt P01391 1-71) (natural protein)
koff: 5e-05 s⁻¹
